Experimental data from PMC5290461.

Target: GST-β1A-integrin tails (UniProt P05556)
Test: pull-down; different concentrations of purified His-tagged talin head incubated with glutathione agarose beads preloaded with GST-β1A-integrin tails or GST; lysis buffer A (50 mM Tris-HCl pH 7.4, 1% NP-40, 150 mM NaCl, 1 mM EDTA, protease inhibitors) with 0.5 mg/ml bovine gelatin; bound protein on SDS-PAGE, Coomassie blue, quantified against standards on the same gel; Kd fitted with SigmaPlot

Chain of UniProt P05556 (P05556 21-798): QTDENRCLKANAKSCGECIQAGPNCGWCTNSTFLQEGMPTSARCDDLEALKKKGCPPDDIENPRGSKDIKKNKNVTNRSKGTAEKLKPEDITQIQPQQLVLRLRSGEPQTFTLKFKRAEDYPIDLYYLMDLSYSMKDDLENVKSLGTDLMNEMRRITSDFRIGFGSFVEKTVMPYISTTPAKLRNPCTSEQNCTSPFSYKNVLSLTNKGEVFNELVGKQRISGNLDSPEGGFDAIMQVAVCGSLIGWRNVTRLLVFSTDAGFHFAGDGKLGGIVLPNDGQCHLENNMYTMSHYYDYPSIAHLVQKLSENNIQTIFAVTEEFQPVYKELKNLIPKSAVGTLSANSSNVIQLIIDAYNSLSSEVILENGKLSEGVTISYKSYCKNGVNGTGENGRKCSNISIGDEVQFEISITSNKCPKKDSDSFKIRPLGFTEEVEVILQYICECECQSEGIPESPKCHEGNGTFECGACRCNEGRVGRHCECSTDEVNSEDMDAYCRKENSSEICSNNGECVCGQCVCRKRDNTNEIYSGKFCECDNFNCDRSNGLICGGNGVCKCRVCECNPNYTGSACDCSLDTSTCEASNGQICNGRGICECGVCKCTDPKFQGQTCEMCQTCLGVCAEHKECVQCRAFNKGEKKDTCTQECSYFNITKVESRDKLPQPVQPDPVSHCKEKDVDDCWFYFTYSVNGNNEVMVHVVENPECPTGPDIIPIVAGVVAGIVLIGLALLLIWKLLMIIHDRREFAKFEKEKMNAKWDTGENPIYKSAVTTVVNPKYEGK

**Q.** How did the Kd turn out when “His-tagged talin1(1-446) WT (from UniProt Q9Y490 1-446) (domain or fragment)” was run?
**A.** 880 nM

**Q.** “His-tagged talin2(1-449) WT (from UniProt Q9Y4G6 1-449) (domain or fragment)” was tested. Which Kd did it give?
**A.** 350 nM
